# Measurements: US5831013, “Capsid polypeptides and use to inhibit viral packaging” (The Research Foundation of State University of New York, dated 1998)
# Where two headings read alike, the source gives them in different places.
# T1: ScVLa capsid protein Cap, full size (697 amino acids) (ScVLa virus of Saccharomyces cerevisiae)
# T1 chain: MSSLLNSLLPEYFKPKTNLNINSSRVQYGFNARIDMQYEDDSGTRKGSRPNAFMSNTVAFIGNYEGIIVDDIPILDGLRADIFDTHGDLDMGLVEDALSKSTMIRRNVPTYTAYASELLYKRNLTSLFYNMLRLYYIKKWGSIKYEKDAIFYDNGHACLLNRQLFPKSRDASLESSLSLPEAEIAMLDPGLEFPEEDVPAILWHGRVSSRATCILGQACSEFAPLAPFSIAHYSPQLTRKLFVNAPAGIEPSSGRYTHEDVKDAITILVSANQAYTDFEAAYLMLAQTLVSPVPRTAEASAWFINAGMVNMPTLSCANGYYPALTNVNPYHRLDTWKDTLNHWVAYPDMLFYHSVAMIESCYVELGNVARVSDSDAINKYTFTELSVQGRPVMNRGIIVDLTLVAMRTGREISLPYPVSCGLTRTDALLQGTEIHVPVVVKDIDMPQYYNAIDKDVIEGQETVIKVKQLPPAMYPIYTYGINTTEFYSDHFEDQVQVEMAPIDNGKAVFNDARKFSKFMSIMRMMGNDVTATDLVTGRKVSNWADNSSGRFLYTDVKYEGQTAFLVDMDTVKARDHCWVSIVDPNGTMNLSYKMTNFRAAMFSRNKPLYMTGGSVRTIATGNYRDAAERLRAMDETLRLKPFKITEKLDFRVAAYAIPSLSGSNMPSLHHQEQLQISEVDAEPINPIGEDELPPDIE
# T2: ScVL1 capsid protein Cap, full size (680 amino acids) (ScVL1 virus of Saccharomyces cerevisiae)
# T2 chain: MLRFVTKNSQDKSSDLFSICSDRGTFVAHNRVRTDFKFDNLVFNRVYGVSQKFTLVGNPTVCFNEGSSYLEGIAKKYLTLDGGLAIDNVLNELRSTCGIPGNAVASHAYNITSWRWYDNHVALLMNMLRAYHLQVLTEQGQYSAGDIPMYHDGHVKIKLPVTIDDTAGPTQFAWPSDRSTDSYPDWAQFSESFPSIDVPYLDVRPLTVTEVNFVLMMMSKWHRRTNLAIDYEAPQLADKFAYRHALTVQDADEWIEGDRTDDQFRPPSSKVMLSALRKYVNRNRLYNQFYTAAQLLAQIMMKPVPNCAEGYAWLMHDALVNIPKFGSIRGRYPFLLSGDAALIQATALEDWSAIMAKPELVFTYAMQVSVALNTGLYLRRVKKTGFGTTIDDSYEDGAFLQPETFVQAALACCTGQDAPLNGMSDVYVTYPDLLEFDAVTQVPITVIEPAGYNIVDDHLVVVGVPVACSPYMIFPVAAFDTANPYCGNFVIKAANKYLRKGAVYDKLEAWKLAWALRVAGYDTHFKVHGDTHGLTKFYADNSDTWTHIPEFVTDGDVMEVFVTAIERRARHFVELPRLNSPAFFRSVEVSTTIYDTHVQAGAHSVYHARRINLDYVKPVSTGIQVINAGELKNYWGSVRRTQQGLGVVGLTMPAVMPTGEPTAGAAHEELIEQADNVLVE
# Assays:
# [1] = biological target: ScVLa capsid protein Cap, full size (697 amino acids) (ScVLa virus of Saccharomyces cerevisiae)
# [2] = biological target: ScVL1 capsid protein Cap, full size (680 amino acids) (ScVL1 virus of Saccharomyces cerevisiae)
# [3] = biological target: T1, ScVLa capsid protein Cap, full size …; test: cell-based or functional assay
# [4] = biological target: T2, ScVL1 capsid protein Cap, full size …; test: cell-based or functional assay
Molecule,Curing (%) of ScVL1 [4],further results
La Cap N-terminal fragment of pGLa1d3 (aa 1-443),,Curing (%) of ScVLa [1]: 100%
L1 Cap N-terminal fragment of pGL1d2 (aa 1-603),,Curing (%) of ScVL1 [2]: 100%
"MSSLLNSLLP [La Cap N-terminal fragment of nonsense mutant pGLa1m6 (E11O, aa 1-10)]",,Curing (%) of ScVLa [3]: < 10%
"L1 Cap N-terminal fragment of nonsense mutant pGL1m14 (Y485O, aa 1-484) (other) MLRFVTKNSQDKSSDLFSICSDRGTFVAHNRVRTDFKFDNLVFNRVYGVSQKFTLVGNPTVCFNEGSSYLEGIAKKYLTLDGGLAIDNVLNELRSTCGIPGNAVASHAYNITSWRWYDNHVALLMNMLRAYHLQVLTEQGQYSAGDIPMYHDGHVKIKLPVTIDDTAGPTQFAWPSDRSTDSYPDWAQFSESFPSIDVPYLDVRPLTVTEVNFVLMMMSKWHRRTNLAIDYEAPQLADKFAYRHALTVQDADEWIEGDRTDDQFRPPSSKVMLSALRKYVNRNRLYNQFYTAAQLLAQIMMKPVPNCAEGYAWLMHDALVNIPKFGSIRGRYPFLLSGDAALIQATALEDWSAIMAKPELVFTYAMQVSVALNTGLYLRRVKKTGFGTTIDDSYEDGAFLQPETFVQAALACCTGQDAPLNGMSDVYVTYPDLLEFDAVTQVPITVIEPAGYNIVDDHLVVVGVPVACSPYMIFPVAAFDTANP",< 5%,
"L1 Cap N-terminal fragment of nonsense mutant pGL1m15 (G501O, aa 1-500) (other) MLRFVTKNSQDKSSDLFSICSDRGTFVAHNRVRTDFKFDNLVFNRVYGVSQKFTLVGNPTVCFNEGSSYLEGIAKKYLTLDGGLAIDNVLNELRSTCGIPGNAVASHAYNITSWRWYDNHVALLMNMLRAYHLQVLTEQGQYSAGDIPMYHDGHVKIKLPVTIDDTAGPTQFAWPSDRSTDSYPDWAQFSESFPSIDVPYLDVRPLTVTEVNFVLMMMSKWHRRTNLAIDYEAPQLADKFAYRHALTVQDADEWIEGDRTDDQFRPPSSKVMLSALRKYVNRNRLYNQFYTAAQLLAQIMMKPVPNCAEGYAWLMHDALVNIPKFGSIRGRYPFLLSGDAALIQATALEDWSAIMAKPELVFTYAMQVSVALNTGLYLRRVKKTGFGTTIDDSYEDGAFLQPETFVQAALACCTGQDAPLNGMSDVYVTYPDLLEFDAVTQVPITVIEPAGYNIVDDHLVVVGVPVACSPYMIFPVAAFDTANPYCGNFVIKAANKYLRK",< 5%,
"L1 Cap N-terminal fragment of nonsense mutant pGL1m12 (E435O, aa 1-434) (other) MLRFVTKNSQDKSSDLFSICSDRGTFVAHNRVRTDFKFDNLVFNRVYGVSQKFTLVGNPTVCFNEGSSYLEGIAKKYLTLDGGLAIDNVLNELRSTCGIPGNAVASHAYNITSWRWYDNHVALLMNMLRAYHLQVLTEQGQYSAGDIPMYHDGHVKIKLPVTIDDTAGPTQFAWPSDRSTDSYPDWAQFSESFPSIDVPYLDVRPLTVTEVNFVLMMMSKWHRRTNLAIDYEAPQLADKFAYRHALTVQDADEWIEGDRTDDQFRPPSSKVMLSALRKYVNRNRLYNQFYTAAQLLAQIMMKPVPNCAEGYAWLMHDALVNIPKFGSIRGRYPFLLSGDAALIQATALEDWSAIMAKPELVFTYAMQVSVALNTGLYLRRVKKTGFGTTIDDSYEDGAFLQPETFVQAALACCTGQDAPLNGMSDVYVTYPDLL",< 5%,
"MLRFVTKNS [L1 Cap N-terminal fragment of nonsense mutant pGL1m13 (Q10O, aa 1-9)]",< 5%,
L1 Cap N-terminal fragment of pGL1d5 (aa 1-433) (other) MLRFVTKNSQDKSSDLFSICSDRGTFVAHNRVRTDFKFDNLVFNRVYGVSQKFTLVGNPTVCFNEGSSYLEGIAKKYLTLDGGLAIDNVLNELRSTCGIPGNAVASHAYNITSWRWYDNHVALLMNMLRAYHLQVLTEQGQYSAGDIPMYHDGHVKIKLPVTIDDTAGPTQFAWPSDRSTDSYPDWAQFSESFPSIDVPYLDVRPLTVTEVNFVLMMMSKWHRRTNLAIDYEAPQLADKFAYRHALTVQDADEWIEGDRTDDQFRPPSSKVMLSALRKYVNRNRLYNQFYTAAQLLAQIMMKPVPNCAEGYAWLMHDALVNIPKFGSIRGRYPFLLSGDAALIQATALEDWSAIMAKPELVFTYAMQVSVALNTGLYLRRVKKTGFGTTIDDSYEDGAFLQPETFVQAALACCTGQDAPLNGMSDVYVTYPDL,< 5%,
"La Cap N-terminal fragment of nonsense mutant pGLa1m5 (S419O, aa 1-418) (other) MSSLLNSLLPEYFKPKTNLNINSSRVQYGFNARIDMQYEDDSGTRKGSRPNAFMSNTVAFIGNYEGIIVDDIPILDGLRADIFDTHGDLDMGLVEDALSKSTMIRRNVPTYTAYASELLYKRNLTSLFYNMLRLYYIKKWGSIKYEKDAIFYDNGHACLLNRQLFPKSRDASLESSLSLPEAEIAMLDPGLEFPEEDVPAILWHGRVSSRATCILGQACSEFAPLAPFSIAHYSPQLTRKLFVNAPAGIEPSSGRYTHEDVKDAITILVSANQAYTDFEAAYLMLAQTLVSPVPRTAEASAWFINAGMVNMPTLSCANGYYPALTNVNPYHRLDTWKDTLNHWVAYPDMLFYHSVAMIESCYVELGNVARVSDSDAINKYTFTELSVQGRPVMNRGIIVDLTLVAMRTGREISLPYPV",,Curing (%) of ScVLa [3]: < 10%
L1 Cap N-terminal fragment of pGL1d4 (aa 1-435) (other) MLRFVTKNSQDKSSDLFSICSDRGTFVAHNRVRTDFKFDNLVFNRVYGVSQKFTLVGNPTVCFNEGSSYLEGIAKKYLTLDGGLAIDNVLNELRSTCGIPGNAVASHAYNITSWRWYDNHVALLMNMLRAYHLQVLTEQGQYSAGDIPMYHDGHVKIKLPVTIDDTAGPTQFAWPSDRSTDSYPDWAQFSESFPSIDVPYLDVRPLTVTEVNFVLMMMSKWHRRTNLAIDYEAPQLADKFAYRHALTVQDADEWIEGDRTDDQFRPPSSKVMLSALRKYVNRNRLYNQFYTAAQLLAQIMMKPVPNCAEGYAWLMHDALVNIPKFGSIRGRYPFLLSGDAALIQATALEDWSAIMAKPELVFTYAMQVSVALNTGLYLRRVKKTGFGTTIDDSYEDGAFLQPETFVQAALACCTGQDAPLNGMSDVYVTYPDLLE,< 5%,
